Reference: the supplement of paper PMC9112550, “Optimization of the antimicrobial peptide Bac7 by deep mutational scanning” (BMC Biology, 2022)

System: Escherichia coli TOP10
Experiment: shrunken log2 fold change of peptide-encoding DNA abundance (4.5 h post-induction vs induction); higher = less antimicrobial activity (less host growth inhibition)
Details: time post-induction: 4.5 h; library: site-saturation at positions 5, 18, 19, 20
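Also: peptides expressed intracellularly from a pBAD plasmid library in pooled LB shake-flask culture, induced with 0.3% L-arabinose, DNA abundance read by NGS, three biological replicates, DESeq2 with apeglm shrinkage.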

Sequence | shrunken log2 fold change
RRIRFRPPRLPRPRPRPFVQPRP | -0.694
RRIRFRPPRLPRPRPRPFVSPRP | -0.296
RRIRFRPPRLPRPRPRPFWEPRP | -0.193
RRIRFRPPRLPRPRPRPFWPPRP | 0.234
RRIRFRPPRLPRPRPRPFYVPRP | -0.417
RRIRFRPPRLPRPRPRPGAGPRP | 0.289
RRIRFRPPRLPRPRPRPGCTPRP | -0.116
RRIRFRPPRLPRPRPRPGEGPRP | 0.375
RRIRFRPPRLPRPRPRPGENPRP | 0.995
RRIRFRPPRLPRPRPRPGHWPRP | 0.0649
RRIRFRPPRLPRPRPRPGLQPRP | -0.18
RRIRFRPPRLPRPRPRPGMCPRP | -0.0231
RRIRFRPPRLPRPRPRPGMDPRP | -0.25
RRIRFRPPRLPRPRPRPGNCPRP | 0.0888
RRIRFRPPRLPRPRPRPGNGPRP | 0.228
RRIRFRPPRLPRPRPRPGNQPRP | -0.00933
RRIRFRPPRLPRPRPRPGPDPRP | 0.325
RRIRFRPPRLPRPRPRPGPWPRP | 0.216
RRIRFRPPRLPRPRPRPGQKPRP | -0.0331
RRIRFRPPRLPRPRPRPGRSPRP | 0.183
RRIRFRPPRLPRPRPRPGTGPRP | -0.124
RRIRFRPPRLPRPRPRPGWYPRP | -0.463
RRIRFRPPRLPRPRPRPGYLPRP | -0.0745
RRIRFRPPRLPRPRPRPHANPRP | -0.16
RRIRFRPPRLPRPRPRPHDYPRP | -0.323

Sequence | shrunken log2 fold change
RRIRFRPPRLPRPRPRPHEMPRP | -0.0108
RRIRFRPPRLPRPRPRPHGCPRP | -0.064
RRIRFRPPRLPRPRPRPHGSPRP | -0.0241
RRIRFRPPRLPRPRPRPHGVPRP | -0.0563
RRIRFRPPRLPRPRPRPHHCPRP | -0.198
RRIRFRPPRLPRPRPRPHHMPRP | 0.335
RRIRFRPPRLPRPRPRPHICPRP | -0.0238
RRIRFRPPRLPRPRPRPHINPRP | -0.634
RRIRFRPPRLPRPRPRPHIQPRP | -0.594
RRIRFRPPRLPRPRPRPHKIPRP | -0.495
RRIRFRPPRLPRPRPRPHLAPRP | -0.0213
RRIRFRPPRLPRPRPRPHMRPRP | -0.0696
RRIRFRPPRLPRPRPRPHPPPRP | 1.27
RRIRFRPPRLPRPRPRPHPSPRP | -0.107
RRIRFRPPRLPRPRPRPHQYPRP | -0.88
RRIRFRPPRLPRPRPRPHRPPRP | -0.157
RRIRFRPPRLPRPRPRPHRVPRP | -0.137
RRIRFRPPRLPRPRPRPHSEPRP | -0.276
RRIRFRPPRLPRPRPRPHSRPRP | -0.112
RRIRFRPPRLPRPRPRPHTHPRP | -0.618
RRIRFRPPRLPRPRPRPHTVPRP | 0.0365
RRIRFRPPRLPRPRPRPHVCPRP | -0.0299
RRIRFRPPRLPRPRPRPHWCPRP | -0.262
RRIRFRPPRLPRPRPRPHYVPRP | -1.78
RRIRFRPPRLPRPRPRPIAIPRP | -0.149

Sequence | shrunken log2 fold change
RRIRFRPPRLPRPRPRPICQPRP | -0.182
RRIRFRPPRLPRPRPRPICTPRP | -0.218
RRIRFRPPRLPRPRPRPIDDPRP | -0.548
RRIRFRPPRLPRPRPRPIDFPRP | -0.0919
RRIRFRPPRLPRPRPRPIDLPRP | -0.164
RRIRFRPPRLPRPRPRPIEAPRP | -0.181
RRIRFRPPRLPRPRPRPIFSPRP | -0.341
RRIRFRPPRLPRPRPRPIFWPRP | 0.192
RRIRFRPPRLPRPRPRPIHYPRP | -1.14
RRIRFRPPRLPRPRPRPIKSPRP | -0.271
RRIRFRPPRLPRPRPRPIKWPRP | -0.101
RRIRFRPPRLPRPRPRPIMAPRP | -0.0564
RRIRFRPPRLPRPRPRPIMYPRP | -0.33
RRIRFRPPRLPRPRPRPIPDPRP | -0.215
RRIRFRPPRLPRPRPRPIPEPRP | 0.236
RRIRFRPPRLPRPRPRPIQAPRP | 0.00328
RRIRFRPPRLPRPRPRPIQKPRP | 0.00595
RRIRFRPPRLPRPRPRPIQSPRP | -0.127
RRIRFRPPRLPRPRPRPIREPRP | -0.0362
RRIRFRPPRLPRPRPRPIRVPRP | 0.0245
RRIRFRPPRLPRPRPRPIWCPRP | -0.0176
RRIRFRPPRLPRPRPRPIWQPRP | -0.146
RRIRFRPPRLPRPRPRPIWYPRP | 0.192
RRIRFRPPRLPRPRPRPKAHPRP | -0.0835
RRIRFRPPRLPRPRPRPKAIPRP | -0.0919
